Results: US20260166145A1 (Memorial Sloan Kettering, published 2026)

B1: Lintuzumab (HuM195) antibody (antibody, V domains shown)
VH: QVQLVQSGAEVKKPGSSVKVSCKASGYTFTDYNMHWVRQAPGQGLEWIGYIYPYNGGTGYNQKFKSKATITADESTNTAYMELSSLRSEDTAVYYCARGRPAMDYWGQGTLVTVSS
VL: DIQMTQSPSSLSASVGDRVTITCRASESVDNYGISFMNWFQQKPGGAPKLLIYAASNQGSGVPSRFSGSGSGTDFTLTISSLQPDDFATYYCQQSKEVPWTFGQGTKVEIK
notes: also called Hu195; Hu195 antibody
B2: HuM195 single-chain variable fragment (scFv), purified, with C-terminal His-tag (scFv)
scFv: QVQLVQSGAEVKKPGSSVKVSCKASGYTFTDYNMHWVRQAPGQGLEWIGYIYPYNGGTGYNQKFKSKATITADESTNTAYMELSSLRSEDTAVYYCARGRPAMDYWGQGTLVTVSSGGGGSGGGGSGGGGSDIQMTQSPSSLSASVGDRVTITCRASESVDNYGISFMNWFQQKPGGAPKLLIYAASNQGSGVPSRFSGSGSGTDFTLTISSLQPDDFATYYCQQSKEVPWTFGQGTKVEIKHHHHHHHH
notes: Expressed from the pSF-CMV-Puro-IL2 secretion plasmid in FreeStyle 293 cells and purified on a Histrap column; Monomeric by size exclusion chromatography; also called HuM195 scFv; Hu195 scFv

Tests used:
[1] = biological target: T1, Human CD33-FC protein (R&D Systems) (human, UniProt P20138 18-259); assay: competitive ELISA on coated CD33-FC: pre-incubation with increasing HuM195 antibody, then HuM195 scFv at 100 nM, detected with anti-human Fab-HRP; signal normalised to 0 nM HuM195 falls from about 95-100 to about 10 on the axis named Blocked (%)
T1 construct: Bought reagent; also called purified CD33-FC; not shown: Fc part of the bought fusion; it is captured by anti-hIgG Fc biosensors
T1 sequence (P20138 18-259 limits assumed): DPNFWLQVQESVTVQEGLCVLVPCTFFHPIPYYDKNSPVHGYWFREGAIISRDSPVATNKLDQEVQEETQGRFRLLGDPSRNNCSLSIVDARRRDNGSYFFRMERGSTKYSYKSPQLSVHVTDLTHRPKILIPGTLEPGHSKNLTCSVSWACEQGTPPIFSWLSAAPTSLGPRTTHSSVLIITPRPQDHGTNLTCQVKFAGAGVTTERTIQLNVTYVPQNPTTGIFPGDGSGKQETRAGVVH

[2] = biological target: T1, Human CD33-FC protein (R&D Systems); assay: BLI (Octet RED96e) on captured human CD33-FC; reference is HuM195 scFv
Excerpt: (§1) Equilibrium dissociation constant (Kd) measurement with bio-layer interferometry (BLI) biosensor. Human CD33-FC protein (R&D Systems, Minneapolis, MN) was captured on Anti-hIgG Fc Capture (AHC) Biosensors (ForteBio, Fremont, CA) overnight and blocked with FC. […] The binding graphs were fitted to a Kd constant model.

[3] = biological target: T1, Human CD33-FC protein (R&D Systems); assay: BLI (Octet RED96e): human CD33-FC captured on anti-hIgG Fc Capture biosensors, antibody in solution; full-length bivalent HuM195 IgG
Excerpt: as §1

[4] = biological target: T1, Human CD33-FC protein (R&D Systems); assay: BLI (Octet RED96e): human CD33-FC captured on anti-hIgG Fc Capture biosensors, scFv in solution; monovalent scFv, not IgG
Excerpt: as §1

Binder	IC50 [1]	fold difference of Kd against HuM195 scFv [2]	Kd [3]	Kd [4]
B1	716 pM	~30 fold	62.7 pM	–
B2	–	–	–	1810 pM
